Test [1] deals with full-length human photoreceptor guanylate cyclase GC-E (human) (UniProt Q02846). Put plainly: backscattering interferometry (BSI); free solution; HEK cell vesicles with full-length human GC-E with 0-10 μM GCAP; titration buffer with saturating 200 μM Ca2+; Mock-HEK vesicles as reference.
Test [2] addresses MBP-KHD: maltose binding protein fused to the juxta-membrane and kinase homology domain of human GC-E (M496-K806) (human) (UniProt Q02846). Put plainly: backscattering interferometry (BSI); free solution; myristoylated GCAP 0 to 6 μM with constant 375 nM MBP fusion protein; titration buffer with 200 μM Ca2+; MBP lacking a GC-E fragment as reference.
Test [3] has the same target. Briefly: ITC; VP-ITC, 25 °C; MBP fusion protein 0.5 μM in the cell, GCAP 10 μM in the syringe; 30 mM Mops/KOH pH 7.2, 60 mM KCl, 4 mM NaCl, 1 mM DTT, 3.5 mM MgCl2, 1 mM GTP, 0.3 mM ATP; injections into MBP subtracted; one binding site model; data not shown. In general terms: ITC needs no label: the signal is the heat of the interaction.
For test [4], the target named is full-length human photoreceptor guanylate cyclase GC-E (human) (UniProt Q02846). Put plainly: backscattering interferometry (BSI); free solution; HEK cell vesicles with full-length human GC-E (50 μg/mL total protein before mixing) with 0-10 μM GCAP; 30 mM Mops/KOH pH 7.2, 60 mM KCl, 4 mM NaCl, 1 mM DTT, 3.5 mM MgCl2, 1 mM GTP, 0.3 mM ATP; 1 mM EGTA; Mock-HEK vesicles as reference; apparent KD.

For test [5], the target named is T1, myristoylated bovine recoverin (bovine, UniProt P21457 1-202, myristoylated).
T1 construct: recoverin, bovine, neuronal Ca2+-sensor protein of photoreceptors
T1 sequence (looked up): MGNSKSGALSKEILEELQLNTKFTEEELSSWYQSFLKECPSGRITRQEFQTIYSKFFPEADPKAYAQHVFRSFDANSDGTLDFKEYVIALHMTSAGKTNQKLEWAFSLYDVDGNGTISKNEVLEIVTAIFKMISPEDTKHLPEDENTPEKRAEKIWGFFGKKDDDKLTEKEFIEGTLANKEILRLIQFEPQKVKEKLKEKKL
Put plainly: backscattering interferometry (BSI); free solution, label-free; recoverin dilution series with constant 4 μM GST-NRK; 20 mM HEPES/KOH pH 7.5, 100 mM NaCl, 1 mM MgCl2, 200 μM CaCl2; GST alone as reference; one site binding model. The following applies: both partners purified.

Test [6] has as its target T2, full-length human photoreceptor guanylate cyclase GC-E (human, UniProt Q02846 52-1103).
T2 construct: also called guanylate cyclase 1; guanylate cyclase type 1
T2 sequence (looked up): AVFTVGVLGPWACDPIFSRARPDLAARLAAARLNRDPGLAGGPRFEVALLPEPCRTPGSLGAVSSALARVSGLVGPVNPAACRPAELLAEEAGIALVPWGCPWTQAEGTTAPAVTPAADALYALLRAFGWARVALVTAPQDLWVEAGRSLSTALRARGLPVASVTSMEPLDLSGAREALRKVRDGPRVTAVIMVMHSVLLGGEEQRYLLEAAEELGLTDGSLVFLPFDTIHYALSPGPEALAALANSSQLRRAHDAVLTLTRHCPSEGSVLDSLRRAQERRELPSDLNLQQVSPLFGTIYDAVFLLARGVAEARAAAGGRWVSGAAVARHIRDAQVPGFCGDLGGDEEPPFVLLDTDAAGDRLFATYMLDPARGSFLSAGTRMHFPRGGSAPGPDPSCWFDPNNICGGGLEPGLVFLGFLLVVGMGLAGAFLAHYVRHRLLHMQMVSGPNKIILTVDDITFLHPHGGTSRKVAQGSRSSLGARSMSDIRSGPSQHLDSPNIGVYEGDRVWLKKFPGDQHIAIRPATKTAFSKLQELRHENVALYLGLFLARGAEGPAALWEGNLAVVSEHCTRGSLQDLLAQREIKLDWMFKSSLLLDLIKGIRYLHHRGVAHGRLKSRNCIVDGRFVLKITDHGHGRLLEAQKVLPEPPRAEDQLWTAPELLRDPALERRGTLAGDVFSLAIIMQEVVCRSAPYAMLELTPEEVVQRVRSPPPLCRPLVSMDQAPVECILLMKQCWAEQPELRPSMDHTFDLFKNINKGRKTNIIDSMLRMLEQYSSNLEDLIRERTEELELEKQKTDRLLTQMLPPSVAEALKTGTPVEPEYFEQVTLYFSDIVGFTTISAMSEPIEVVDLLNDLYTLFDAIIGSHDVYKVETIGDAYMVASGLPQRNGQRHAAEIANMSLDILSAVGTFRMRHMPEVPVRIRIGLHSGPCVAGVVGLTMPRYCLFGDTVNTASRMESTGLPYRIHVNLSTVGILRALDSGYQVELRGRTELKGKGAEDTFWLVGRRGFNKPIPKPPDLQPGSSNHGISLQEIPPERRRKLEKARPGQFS
Put plainly: backscattering interferometry (BSI); free solution; HEK cell vesicles with full-length human GC-E with 0-10 μM GCAP; titration buffer with saturating 200 μM Ca2+; Mock-HEK vesicles as reference. The following applies: one partner purified.

In test [7] the target is T2, full-length human photoreceptor …. Briefly: backscattering interferometry (BSI); free solution; HEK cell vesicles with full-length human GC-E (50 μg/mL total protein before mixing) with 0-10 μM GCAP; 30 mM Mops/KOH pH 7.2, 60 mM KCl, 4 mM NaCl, 1 mM DTT, 3.5 mM MgCl2, 1 mM GTP, 0.3 mM ATP; 1 mM EGTA; Mock-HEK vesicles as reference; apparent KD. The following applies: one partner purified.

As to “guanylate cyclase-activating protein 1 (GCAP1), myristoylated (from UniProt P46065 1-205) (natural protein)”, the Kd turned out to be 505 nM in test [1], 841 nM in test [2], 580 nM in test [3] and 663 nM in test [4]. Moreover, the stoichiometry N in test [3] came out at 0.9.

B1: GST fusion protein containing the N-terminal 25 amino acids of bovine GRK1 (domain or fragment, UniProt P28327 1-25, looked up)
chain: MDFGSLETVVANSAFIAARGSFDAS
notes: rhodopsin kinase GRK1, bovine, the N-terminal 25 amino acids; also called NRK; N-terminal GRK1 fragment
Turning to B1, in test [5], the Kd is 4720 nM.

B2: guanylate cyclase-activating protein 2 (GCAP2), myristoylated (natural protein, UniProt P51177 1-204, looked up)
chain: MGQQFSWEEAEENGAVGAADAAQLQEWYKKFLEECPSGTLFMHEFKRFFKVPDNEEATQYVEAMFRAFDTNGDNTIDFLEYVAALNLVLRGTLEHKLKWTFKIYDKDRNGCIDRQELLDIVESIYKLKKACSVEVEAEQQGKLLTPEEVVDRIFLLVDENGDGQLSLNEFVEGARRDKWVMKMLQMDLNPSSWISQQRRKSAMF
modifications: myristoylated
In the case of B2, the Kd in test [6] worked out at 418 ± 135 nM; in test [7], 231 nM.

Usually stoichiometry N stands for a count of units in the complex or per binding partner.

(Values after PMC5374524, “Label-free quantification of calcium-sensor targeting to photoreceptor guanylate cyclase and rhodopsin kinase by backscattering interferometry” (Scientific Reports, 2017).)
